Legend:
[1] = system: C3H 10T1/2 cells; assay: Plating efficiency in conjunction with transformation assay; type: cell-based; conditions: 200 cells/dish, 10 days; conjugates 1.0 μg/ml after MCA 1 μg/ml 24 hr
Description: The plating efficiency (PE) of the cells was also studied in conjunction with each of the transformation assays. To determine the PE of the cells in the different treatment groups, cells (200 cells/dish) were seeded into three 60-mm petri dishes per experiment group and treated in the identical manner as the transformation assay cells. The cells in these assays were terminated at 10 days, fixed with 100% methanol, and stained with giemsa; the colonies of 50 cells or more visible under a microscope were then counted. The plating efficiency is defined as the (number of colonies/number of cells seeded)*100.

[2] = system: C3H 10T1/2(clone 8) cells; assay: In vitro transformation assay (MCA-induced); type: cell-based; conditions: for transformed foci in the dishes scored / Fraction of dishes containing transformed foci / No. of dishes with transformed foci/No. of dishes: MCA 1 μg/ml 24 hr, then conjugates 1.0 μg/ml for first three weeks; for Fraction of dishes containing transformed foci / No. of dishes with transformed foci/No. of dishes: scored at six weeks; for retention of the biological (anti-transformation) activity of BBI: 1.0 μg/ml
Description: Transformation assays were carried out using C3H 10T1/2(clone 8) cells according to the published recommendations [Reznikoff, C. A. et al. (1973) Cancer. Res. 33, 3239–3249; Reznikoff, C. A. et al. (1973) Cancer. Res. 33, 3231–3238]. Stock cultures of mycoplasma-free cells were maintained by passing 50,000 cells per 75 cm^2 flask every seven days. Using this schedule, the cells were always passed approximately 2 days before reaching confluence. The stock culture was grown in Eagle's basal medium supplemented with 10% FBS, penicillin (100 units), and streptomycin (100 μg) and used for the transformation assays at passages of 9 to 14. The cells were passed by treating the stock cells with trypsin (0.1%) in PBS for 5 min and quenching the trypsin with 5 ml of the medium. This procedure was adapted to minimize spontaneous transformation in the stock cultures and maximize the plating efficiency in the petri dishes. The FBS stock used in the cultures was pre-screened to ensure that the serum was able to support the expression and the growth of the transformed cells.
For the transformation assays, C3H 10T1/2 cells (1000/dish) were seeded into 60 mm petri dishes and allowed to grow in a humidified 5% CO2 atmosphere in Eagle's basal medium, supplemented with 10% FBS, penicillin (100 units), and streptomycin (100 μg), for 24 hr. Subsequently, the cells were initiated by treatment with 25 μl of the 3-methylcholanthrene (MCA) in acetone stock solution ([…]) to a final concentration of 1 μg/ml of MCA (5 μg/5 ml). The cells were allowed to grow in the presence of the carcinogen or solvent for 24 hr, and the medium in each dish was then replaced with fresh medium containing no carcinogen or solvent. The medium in the dishes was replaced twice per week for the first two weeks of the assay, and thereafter once a week for the remainder four weeks of the assay. In the experiments designed to determine the transformation inhibitory activity of the conjugates, the cells were maintained in the medium containing the conjugates (1 μg/ml) for the first three weeks of the assay; thereafter, the cells were maintained in medium containing no added conjugates.
Six weeks after the carcinogen treatment, the cells were inspected under a microscope for adherence to the culture dishes and were washed with PBS and then fixed in 100% methanol. The fixed monolayers were then stained with Giemsa stain. 20 dishes per group were treated in each experiment. In addition to the test groups, all the transformation assays contained at least three other groups: negative control (not treated with carcinogen or solvent), acetone control (treated with 25 μl of acetone), and positive control [treated with MCA (1 μg/ml) in 25 μl of acetone]. The transformed foci (>3 mm in diameter) in the plates were studied under a microscope and classified according to published guidelines as types I, II, or III [Landolph, J. R. (1985) Transfomatin assay of established cell lines: Mechanism and Application (ed. Kakunaga, T., and Yamasaki, H.) IARC Scientific Publications, Lyon, France pp. 185–201]. Briefly, type III foci were dense, multilayered, basophilic, areas of cell growth which stained to a deep blue color with Giemsa and had rough criss-crossed edges. Type II foci were also dense, multilayered, areas of cell growth, but were stained to a purple color with Giemsa and had smoother, more defined edges compared to Type III foci. Type I foci were not scored in the assay.
BBI, either as the free protein or in conjugated form to palmitic or oleic acid, was added to the cultures at 1.0 μg/ml for the first three weeks of the transformation assay period starting immediately after the MCA treatment. MCA-treated cells were exposed to 3-methylcholanthrene, dissolved in 25 /μl of acetone, at a concentration of 1 μg/ml for 24 hr. Acetone-treated cells were exposed to 25 μl of acetone for 24 hr only. […]

[3] = mouse, in vivo, iv, 3 mg/kg
[4] = system: Human colon carcinoma cells (Caco-2)
[5] = system: Caco-2 monolayers; assay: Transport of single- and multiple-conjugates across Caco-2 monolayers in transwells; type: cell-based, Human; conditions: for order of the transport extent (cumulative transport): Caco-2 transwells, n=3
Description: Confluent cell monolayers, 2 to 3 weeks old, and having a TEER value of approximately 500 Ωcm^2, were first incubated with Dulbecco's MEM containing 1% of FBS for 30 min at 37° C. Subsequently, the incubation medium was removed, and the ^125I-BBI (10 μg/ml) conjugates in 1.5 ml of the medium was added to the apical chamber of the transwells. To the basal chamber, 2.5 ml of the medium was added and the transwells were incubated at 37° C. At predetermined times, the entire basal chamber medium (2.5 ml) from each transwell was removed and counted for radioactivity using a gamma counter. In each experiment, typically seven samples were taken at 1, 2, 3, 4, 5, 6 and 24 hr post-incubation. After the 24 hr samples were taken, the cell monolayers were rinsed three times with ice-cold PBS, cut out of the inserts, and counted for accumulated radioactivity using a gamma counter.
The integrity of the ^125I-BBI conjugates transported across the monolayers was studied using Sephadex G50 gel-filtration chromatography. Briefly, after the basal medium was sampled at 24 hr, 1.0 ml of the medium was centrifuged at 2000 rpm and then eluted from a G50 column (10 ml) using PBS; 1 ml fractions were collected and the fraction-associated radioactivity was determined using a gamma counter. Intact conjugates eluted at column void volume and fragments smaller than 1 kDa were eluted at or above the column volume.
In the transwell experiments, the conjugates were incubated with the apical side of the cells for 1 hr at 37° C. The transwells were then rinsed three times with ice-cold PBS and then reincubated with serum free medium. The release of the conjugates into the apical and the basal medium was chased for 24 hr by counting the entire basal or the apical medium at different times. The total counts obtained at the end of the chase period (transwells+media counts were added, and the release of the conjugates (% of total) at different times was calculated. To ensure that the counts obtained in the transwells at 24 hr were due to the presence of the conjugates in the cells and not non-specific binding to the plastic, the transwells were exposed to trypsin for 10 min, rinsed three times with ice-cold pbs, and subsequently counted for accumulated radioactivity.
BBI was modified with 2 or 4 palmitic acids, and the transport was determined in transwells. The cumulative transport of BBI, BBI modified with 4 palmitic acids, and BBI modified with 2 palmitic acids in Caco-2 monolayers were determined as BBI (ng/monolayer) ± SEM, n=3. The order of the transport extent was BBIssPal(4)>BBI>BBIssPal(2). The results of the internalization of the conjugates into the same cells were determined as the ng of BBI internalized per monolayer. […] The basal media obtained at 24 hr from the transwells was analyzed using a G50 column. […] However, a small, but significant, amount of the basal media of BBIssPal(2) consisted of intact conjugate. This quantity consisted of between about 10 and about 20% of the total radioactivity present in the basal medium.

Row | Molecule | Plating Efficiency (%) [1] [%] | transformed foci in the dishes scored [2] | Fraction of dishes containing transformed foci [2] | No. of dishes with transformed foci/No. of dishes [2] | kidney clearance, fold lower than native-BBI [3] | liver accumulation, fold higher than BBI [3] | lung accumulation, fold higher than BBI [3] | retention in the liver at 24 hr [3] | binding to BSA [4] | internalization, fold increase over that of BBI [4] [fold] | reduction of uptake after reduction with DTT [4] | reduction of uptake by defatted-BSA [4] [%] | uptake, fold higher than 125I-BBI [4] | uptake, fold higher than native-BBI [4] [fold] | uptake, fold higher than that of 125I-BBI [4] [fold] | retention of the biological (anti-transformation) activity of BBI [2] | blood levels, fold higher than BBI [3] | order of the transport extent (cumulative transport) [5] | transcytosis across the monolayers (G50 analysis of basal media) ([5]; basal media at 24 hr) | internalization into the cells (rank) ([5]; same Caco-2 monolayers, per monolayer)
1 | Cc1ccc2cc3c(ccc4ccccc43)c3c2c1CC3 [MCA, 3-methylcholanthrene, reference compound] | 21 ± 3.0 | 6 out of the 19 dishes scored contained type III foci | 0.32 | 6/19 | – | – | – | – | – | – | – | – | – | – | – | – | – | – | – | –
2 | BBIssPal: palmityl disulfide conjugate of BBI, made from thiolated BBI and Pal-PDC (conjugate, UniProt P01055 40-110, looked up, palmityl disulfide conjugate, palmityl disulfide conjugate of BBI, made from thiolated BBI and Pal-PDC) Bowman-Birk type proteinase …: DDESSKPCCDQCACTKSNPPQCRCSDMRLNSCHSACKSCICALSYPAQCFCVDITDFCYEPCKPSEDDKEN | 23 ± 3.0 | one type II focus out of the 20 dishes | 0.05 | 1/20 | about 4 fold | approximately 5 fold | approximately 2 fold | remained high in the liver even at 24 hr post-injection | binds strongly to BSA | 35 | approximately 80% | 82 | approximately 100 fold | 10 | 80 | retained the original biological activity of BBI | – | – | – | –
3 | BBIssOleic: oleic acid conjugated BBI, made by the identical procedure as BBIssPal (conjugate, UniProt P01055 40-110, looked up, oleic acid disulfide conjugate, oleic acid conjugated BBI, made by the identical procedure as BBIssPal) Bowman-Birk type proteinase …: DDESSKPCCDQCACTKSNPPQCRCSDMRLNSCHSACKSCICALSYPAQCFCVDITDFCYEPCKPSEDDKEN | 24 ± 3.5 | no transformed foci | 0 | 0/20 | about 4 fold | about 4 fold | about 2 fold | significant levels of the conjugate present in the liver even at 24 hr post-injection | – | – | – | – | about 108 fold | – | – | retained the original biological activity of BBI | about 4 fold | – | – | –
4 | BBIssPal(4): BBI modified with 4 palmitic acids (conjugate, UniProt P01055 40-110, looked up, 4 palmityl disulfide groups, BBI modified with 4 palmitic acids) Bowman-Birk type proteinase …: DDESSKPCCDQCACTKSNPPQCRCSDMRLNSCHSACKSCICALSYPAQCFCVDITDFCYEPCKPSEDDKEN | – | – | – | – | – | – | – | – | – | – | – | – | – | – | – | – | – | BBIssPal(4)>BBI>BBIssPal(2) | neither BBI nor BBIssPal(4) was transcytosed | highest uptake
5 | BBIssPal(2): BBI modified with 2 palmitic acids (conjugate, UniProt P01055 40-110, looked up, 2 palmityl disulfide groups, BBI modified with 2 palmitic acids) Bowman-Birk type proteinase …: DDESSKPCCDQCACTKSNPPQCRCSDMRLNSCHSACKSCICALSYPAQCFCVDITDFCYEPCKPSEDDKEN | – | – | – | – | – | – | – | – | – | – | – | – | – | – | – | – | – | BBIssPal(4)>BBI>BBIssPal(2) | – | –
